Numbering of substitutions follows the chain as printed.

Results on 1 molecule are retold here after patent US20210238276A1 (INTEGRAL MOLECULAR, published 2021).

Test in all cases: flow cytometry, alanine-scan library in HEK-293T, with cytochalasin B
(In general: Flow cytometry measures light scatter and fluorescence of single cells or particles in a stream.)

In one assay the target is T1, hsGLUT4 Q295A (human, UniProt P14672 1-509).
T1 sequence: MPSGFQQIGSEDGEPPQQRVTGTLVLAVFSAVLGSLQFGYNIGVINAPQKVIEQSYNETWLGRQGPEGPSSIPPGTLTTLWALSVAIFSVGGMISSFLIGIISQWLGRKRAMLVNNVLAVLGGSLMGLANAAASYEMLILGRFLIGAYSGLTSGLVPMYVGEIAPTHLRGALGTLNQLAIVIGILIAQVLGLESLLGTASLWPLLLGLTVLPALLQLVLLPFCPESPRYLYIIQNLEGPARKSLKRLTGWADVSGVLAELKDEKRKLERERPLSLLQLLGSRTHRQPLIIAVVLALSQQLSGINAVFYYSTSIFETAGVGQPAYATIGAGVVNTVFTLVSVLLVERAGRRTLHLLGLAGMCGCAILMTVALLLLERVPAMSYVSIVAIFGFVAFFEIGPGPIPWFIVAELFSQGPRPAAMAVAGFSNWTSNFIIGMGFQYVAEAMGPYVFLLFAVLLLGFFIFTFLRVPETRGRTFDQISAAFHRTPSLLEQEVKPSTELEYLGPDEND
As to the method: (§1) Because of the state-dependence of the isolated MAbs, we next wished to understand the mechanism by which each MAb could recognize GLUT4 in its different conformations. The residues required for binding of each MAb were determined using shotgun mutagenesis comprehensive alanine scanning (Davidson E & Doranz B J (2014) A High-Throughput Shotgun Mutagenesis Approach to Mapping B-cell Antibody Epitopes. Immunology, which is hereby incorporated by reference in its entirety). All residues of hsGLUT4 were individually mutated to alanine, with existing alanines changed to serines. Mutations were obtained for 508 of the 509 residues of GLUT4 (excluding the initiating methionine). The entire mutation library was transfected into human HEK-293T cells in a 384-well array format (one clone per well) and assessed for immunoreactivity using high-throughput flow cytometry.
(§2) HEK-293T cells were transfected by CaPO₄ with plasmids in 6-well culture plates (Falcon) at 750,000 cells/well. At 48 hours post transfection, cells were stained with anti-V5 and anti-GLUT4 MAbs (purified scFv, 2 μg/ml) followed by biotinylated goat anti-mouse or human antibody (1:500) and streptavidin-PerCP (1:500). Fluorescence was detected using an Intellicyt high-throughput flow cytometer (HTFC; Intellicyt, Albuquerque, N. Mex.). For cell permeabilization, cells were treated with saponin at 0.1% in PBS for 20 minutes. To discriminate intact (live) and permeabilized (dead) cells without the use of detergent, propidium iodide (PI) was added to HEK-293T cells at 1 ug/ml just prior to flow cytometry. Where indicated, cytochalasin B (Sigma) was used at a final concentration of 10 uM and phloretin (Sigma) was used at a final concentration of 100 uM, each added in 10% NGS for 30 minutes prior to antibody staining as well as included with the primary antibody.

The target in another assay is T2, hsGLUT4 R265A (human, UniProt P14672 1-509).
T2 sequence: T1 sequence with R265A, A295Q
As to the method:
as §1, §2

A further assay has as its target T3, hsGLUT4 G65A (human, UniProt P14672 1-509).
T3 sequence: T1 sequence with G65A, A295Q
As to the method: as §1, §2

For another assay, the target named is T4, hsGLUT4 E315A (human, UniProt P14672 1-509).
T4 sequence: T1 sequence with A295Q, E315A
As to the method: as §1, §2

B1: AB102 (Fc fusion)
scFv: ALTQPSSVSANLGGTVKITCSGGGSYGYGWYQQKSPGSAPVTVIYSNDQRPSDIPSRFSGSKSGSTATLTITGVRAEDEAIYYCGSTDSDYVGIFGAGTTLTVLGQSSRSSGGGGSSGGGGSAVTLDESGGGLQTPGGTLSLVCKASGFDFSSYATIWVRQAPGKGLEWVAGISGTGTGSSTGYAPAVKGRATISRDNGQSTVRLQLNNLRAEDTGSYFCAKSTGYGDSWIYPDSIDAWGHGTEVIVSS
notes: also called MAb AB102; not shown: Fc fragment of human IgG1, cloned in frame with the scFv
For the molecule B1, the “% of binding to wild type GLUT4” value in the assay with hsGLUT4 Q295A is 89%; in the assay with hsGLUT4 R265A, -5%; in the assay with hsGLUT4 G65A, 95%; in the assay with hsGLUT4 E315A, 76%.
